# Measurements as given in patent publication US20030186281A1, “Modified tetracycline repressor protein compositions and methods of use” (priority 2001, published 2003).
# Numbering of substitutions follows the chain as printed. In names and notes the source's numbering stands.
# B1: TetRrevAtc4-11: revTetR(BD) L55L A56P R62S (protein)
# chain: MSRLDKSKVINSALELLNEVGIEGLTTRKLAQKLGVEQPTLYWHVKNKRALLDALPVEILASHHDYSLPAAGESWQSFLRNNAMSFRRALLRYRDGAKVHLGTRPDEKQYDTVETQLRFMTENGFSLRDGLYAISAVSHFTLGAVLEQQEHTAALTDRPAAPDENLPPLLREALQIMDSDDGEQAFLHGLESLIRGFEVQLTALLQIV
# modifications: Modified tetracycline repressor
# notes: revTetR(BD) L55L A56P R62S
# B2: TetRrevAF3/6: revTetR(BD) E23K D95H L101H (protein)
# chain: B1 chain with E23K, P56A, S62R, D95H, L101H
# modifications: Modified tetracycline repressor
# notes: revTetR(BD) E23K D95H L101H
# B3: TetRrevAF2/15: revTetR(BD) V20G I22N R49Q A50T (protein)
# chain: B1 chain with V20G, I22N, R49Q, A50T, P56A, S62R
# modifications: Modified tetracycline repressor
# notes: revTetR(BD) V20G I22N R49Q A50T
# B4: TetRrevAD3/7: revTetR(BD) L17M E19D L52L D53Y A54A A56E (protein)
# chain: B1 chain with L17M, E19D, D53Y, P56E, S62R
# modifications: Modified tetracycline repressor
# notes: revTetR(BD) L17M E19D L52L D53Y A54A A56E
# B5: TetRrevAF2/14: revTetR(BD) L14L E15A L16L L17V N18N; V20V G96V (protein)
# chain: B1 chain with E15A, L17V, P56A, S62R, G96V
# modifications: Modified tetracycline repressor
# notes: revTetR(BD) L14L E15A L16L L17V N18N; V20V G96V
# B6: TetRrevAD2/1: revTetR(BD) G21G L51L D53Y L55L A56P A61E (protein)
# chain: B1 chain with E19G, D53Y, A61E, S62R
# modifications: Modified tetracycline repressor
# notes: revTetR(BD) G21G L51L D53Y L55L A56P A61E
# B7: TetRrevAtc4-13: revTetR(BD) E58N I59T L60F H63Y (protein)
# chain: B1 chain with P56A, E58N, I59T, L60F, S62R, H63Y
# modifications: Modified tetracycline repressor
# notes: revTetR(BD) E58N I59T L60F H63Y
# B8: TetRrevAD2/5: revTetR(BD) L17F L55L L60F R62V (protein)
# chain: B1 chain with L17F, P56A, L60F, S62V
# modifications: Modified tetracycline repressor
# notes: revTetR(BD) L17F L55L L60F R62V
# B9: TetRrevAD3/8: revTetR(BD) L16L A56A V57E E58L I59N L60A (protein)
# chain: B1 chain with P56A, V57E, E58L, I59N, L60V, S62R
# modifications: Modified tetracycline repressor
# notes: revTetR(BD) L16L A56A V57E E58L I59N L60A
# B10: TetRrevAD3/6: revTetR(BD) V20G A56P I59L R62R (protein)
# chain: B1 chain with V20G, I59L, S62R
# modifications: Modified tetracycline repressor
# notes: revTetR(BD) V20G A56P I59L R62R
# B11: TetRrevAD3/10: revTetR(BD) N18Y G24G L51L D53Y A54V (protein)
# chain: B1 chain with N18Y, D53Y, A54V, P56A, S62R
# modifications: Modified tetracycline repressor
# notes: revTetR(BD) N18Y G24G L51L D53Y A54V
# B12: TetRrevAF4/6: revTetR(BD) E15D L17I N18T E23G A54V D95A (protein)
# chain: B1 chain with E15D, L17I, N18T, E23G, A54V, P56A, S62R, D95A
# modifications: Modified tetracycline repressor
# notes: revTetR(BD) E15D L17I N18T E23G A54V D95A
# B13: TetRrevAD3/9: revTetR(BD) E15Q L17L L55M I59R (protein)
# chain: B1 chain with E15Q, L55M, P56A, I59R, S62R
# modifications: Modified tetracycline repressor
# notes: revTetR(BD) E15Q L17L L55M I59R
# B14: TetRrevAF4/9: revTetR(BD) L16R E19D E23D D95G V99A G102G (protein)
# chain: B1 chain with L16R, E19D, E23D, P56A, S62R, D95G, V99A
# modifications: Modified tetracycline repressor
# notes: revTetR(BD) L16R E19D E23D D95G V99A G102G
# B15: TetRrevAF2/16: revTetR(BD) E19V Y93C D95Y A97T K98N V99L L101L (protein)
# chain: B1 chain with E19V, P56A, S62R, Y93C, D95Y, A97T, K98N, V99L
# modifications: Modified tetracycline repressor
# notes: revTetR(BD) E19V Y93C D95Y A97T K98N V99L L101L
# B16: TetRrevAD2/8: revTetR(BD) V20G D53N A54A A56G V57L I59F L60L R62R (protein)
# chain: B1 chain with V20G, D53N, P56G, V57L, I59F, L60F, S62R
# modifications: Modified tetracycline repressor
# notes: revTetR(BD) V20G D53N A54A A56G V57L I59F L60L R62R
# B17: TetRrevAF4/5: revTetR(BD) E15G L16L D95A V99G (protein)
# chain: B1 chain with E15G, P56A, S62R, D95A, V99G
# modifications: Modified tetracycline repressor
# notes: revTetR(BD) E15G L16L D95A V99G
# B18: TetRrevAF4/4: revTetR(BD) G24A R94P D95E G102D (protein)
# chain: B1 chain with G24A, P56A, S62R, R94P, D95E, G102D
# modifications: Modified tetracycline repressor
# notes: revTetR(BD) G24A R94P D95E G102D
# B19: TetRrevAF3/8: revTetR(BD) E15V L16L N18H E19D V20D R94P D95H H100N (protein)
# chain: B1 chain with E15V, N18H, E19D, V20D, P56A, S62R, R94P, D95H, H100N
# modifications: Modified tetracycline repressor
# notes: revTetR(BD) E15V L16L N18H E19D V20D R94P D95H H100N
# B20: TetRrevAF3/5: revTetR(BD) V20F G21R R49S (protein)
# chain: B1 chain with V20F, G21R, R49S, A50T, P56A, S62R
# modifications: Modified tetracycline repressor
# notes: revTetR(BD) V20F G21R R49S
# Tested on: tet operator sequence
# Experiment: β-galactosidase activity of a tetracycline-regulated promoter in transformed E. coli with revTetR, in the presence and absence of anhydrotetracycline (atc)
# Assay type: cell-based, Escherichia coli
# Conditions: RevTetR isolate cultured in the absence of anhydrotetracycline (ATC)
# Protocol: The relative activity of revTetR repressors was determined at 28° C. and 37° C. for each clone by measuring β-galactosidase activity of a tetracycline-regulated promoter in transformed Escherichia coli in the presence and absence of the tetracycline analog, anhydrotetracycline (atc). The relative β-galactosidase activity was measured in standard Miller units and is presented as the percent of maximal expression as measured in the absence of Tet repressor. […] With respect to each mutant, as well as the wild-type controls, FIG. 2 provides two horizontal bars; the upper horizontal bar represents the level of β-galactosidase activity in the absence of anhydrotetracycline (−atc) while the lower horizontal bar represents the level of β-galactosidase activity in the presence of anhydrotetracycline (+atc).
# The pool of mutated Tet repressors was cloned into plasmid pWH1411 (Baumeister et al., 1992, Proteins: Struct. Funct. Genet. 14: 168-77), which carries a TetR(B) gene, to provide a TetR(BD) chimera that included, as the amino-terminal portion, amino acid residues 1 to 50 of the TetR(B) gene and, as the carboxyl-terminal portion, amino acid residues 51 to 208 of the TetR(D) gene. The resulting plasmid pool was screened in a genetic assay which positively selects for a functional interaction between a Tet repressor and its cognate operator using E. coli strain WH207(λWH25) (the construction of this strain is described in detail in Wissmann et al., (1991) Genetics 128: 225-32). In this E. coli strain, tet operators direct the expression of divergently arranged β-galactosidase (lacZ) and Lac repressor (lacI) genes and the lac regulatory region directs the expression of a galactokinase (galK) gene on plasmid pWH414. Binding of Tet repressors to tet operators turns off transcription of the lacI and lacZ genes. The absence of Lac repressor allows for expression of the galK gene, which enables the E. coli strain to use galactose as a sole carbon source, which serves as one marker. The lacZ^− phenotype serves as a second marker. Thus, bacteria containing Tet repressors which bind to tet operators, have a Gal^+, lacZ^− phenotype. Bacteria containing wild-type Tet repressors have a Gal^+, lacZ^− phenotype in the absence of tetracycline. Modified “reverse” Tet repressors (revTetR) were selected based upon a Gal^+, lacZ^− phenotype in the presence of tetracycline.
# The ability of each revTetR clone to bind to its cognate tet operator sequence and regulate transcription in a prokaryotic organism, Escherichia coli, in the presence and absence of a tetracycline analog (anhydrotetracycline, atc) was determined (Table 3, FIG. 2). The relative ratios of non-repressed to repressed levels of transcription for the 15 clones range from about 1.4-fold to about 50-fold at 28° C. and from about 1.3-fold to 40-fold at 37° C. For example, clone 4b comprising an amino acid substitution of glutamic acid for glycine at position 96 (e.g., SEQ ID NO. 24) repressed transcription 19-fold at 37° C. but to a less extent at 28° C. (5.7-fold, Table 3). Furthermore, clones 14, 5a and 7 comprising the arginine for glycine substitution at position 96 and further comprising a substitution or substitutions of serine for threonine at position 103 and valine for glutamic acid at position 114; leucine for proline at position 159; or glutamine to histidine at position 188, respectively, have pronouncedly different activities.
# wherein each underlined base was present in approximately 85% of the oligonucleotides, while the remaining approximately 15% of the oligonucleotides contained one of the other three, non-wild type bases at that position. Similar mutagenic, partially randomized oligonucleotides were prepared for mutagenesis of the coding regions for amino acids 14-25 and 93-102. It was predicted that, according to a binomial distribution, each oligonucleotide would contain three to four mutations. […]
row,Molecule,"β-Galactosidase Activity, Cultured Without ATC"
1,B1,103.132
2,B2,77.2272
3,B3,82.5755
4,B4,73.4537
5,B5,90.5688
6,B6,34.2242
7,B7,98.8175
8,B8,50.466
9,B9,65.0174
10,B10,93.0552
11,B11,89.1669
12,B12,100.702
13,B13,60.2932
14,B14,110.616
15,B15,90.6438
16,B16,73.8584
17,B17,105.33
18,B18,94.4528
19,B19,95.5476
20,B20,101.824

# Same assay, conditions: RevTetR isolate cultured in the presence of anhydrotetracycline (ATC)
row,Molecule,"β-Galactosidase Activity, Cultured With ATC"
1,B1,17.479
2,B2,1.0546
3,B3,2.828
4,B4,2.4531
5,B5,1.239
6,B6,1.17
7,B7,8.1397
8,B8,1.4141
9,B9,1.9046
10,B10,1.6494
11,B11,3.5004
12,B12,3.7257
13,B13,4.2427
14,B14,1.3761
15,B15,2.622
16,B16,1.8468
17,B17,0.9927
18,B18,3.8273
19,B19,2.7257
20,B20,4.696
